Among the data in doi:10.1101/2022.04.13.488184 are Kd values, retold here.

The target of this assay is Sulfolobus acidocaldarius SRP54 (Sulfolobus acidocaldarius) (UniProt O07853). Kind of assay: FRET or BRET. Background: Bioluminescence resonance energy transfer reports proximity on the nanometre scale.
UniProt O07853, sequence (O07853 whole entry, the tested form may be a part): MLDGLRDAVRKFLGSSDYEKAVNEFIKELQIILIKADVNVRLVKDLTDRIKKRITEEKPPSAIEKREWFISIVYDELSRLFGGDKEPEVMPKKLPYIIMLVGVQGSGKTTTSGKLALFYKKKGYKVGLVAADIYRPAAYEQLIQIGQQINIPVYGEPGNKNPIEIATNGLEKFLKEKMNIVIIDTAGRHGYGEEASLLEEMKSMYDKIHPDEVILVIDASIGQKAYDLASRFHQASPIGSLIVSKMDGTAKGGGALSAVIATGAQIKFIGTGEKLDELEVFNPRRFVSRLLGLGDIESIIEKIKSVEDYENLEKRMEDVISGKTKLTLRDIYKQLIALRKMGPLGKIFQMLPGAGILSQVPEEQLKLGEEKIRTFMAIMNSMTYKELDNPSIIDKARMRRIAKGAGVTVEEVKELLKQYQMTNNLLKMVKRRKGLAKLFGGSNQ
For orientation: Kd means the concentration at which binding is half-saturated. A high value points to a looser complex. For the substance “FtsYΔαN3 (Gly129-Ser369) (from UniProt P27414 129-369) (domain or fragment)”, the Kd was 272 nM. This lies in the sub-micromolar range.
Take “FtsYΔαN1 (Tyr87-Ser369) (from UniProt P27414 87-369) (domain or fragment)”: the Kd stood at 75 nM. Compared with the last substance, the Kd is about 3.6-fold lower.
“FtsYΔαN2 (Ser109-Ser369) (from UniProt P27414 109-369) (domain or fragment)” had a Kd of 114 nM.
